# Test results: patent publication US20170355757A1 (Regeneron, published 2017)
# Where a chain is given by its changes, count along the chain named. Names and notes keep the numbering of the source.
# T1: monkey C5-mmh (monkey, UniProt P01031 19-1676 (human entry), limits assumed)
# T1 construct: Recombinant monkey C5 with a C-terminal myc-myc-hexahistidine tag
# T1 chain: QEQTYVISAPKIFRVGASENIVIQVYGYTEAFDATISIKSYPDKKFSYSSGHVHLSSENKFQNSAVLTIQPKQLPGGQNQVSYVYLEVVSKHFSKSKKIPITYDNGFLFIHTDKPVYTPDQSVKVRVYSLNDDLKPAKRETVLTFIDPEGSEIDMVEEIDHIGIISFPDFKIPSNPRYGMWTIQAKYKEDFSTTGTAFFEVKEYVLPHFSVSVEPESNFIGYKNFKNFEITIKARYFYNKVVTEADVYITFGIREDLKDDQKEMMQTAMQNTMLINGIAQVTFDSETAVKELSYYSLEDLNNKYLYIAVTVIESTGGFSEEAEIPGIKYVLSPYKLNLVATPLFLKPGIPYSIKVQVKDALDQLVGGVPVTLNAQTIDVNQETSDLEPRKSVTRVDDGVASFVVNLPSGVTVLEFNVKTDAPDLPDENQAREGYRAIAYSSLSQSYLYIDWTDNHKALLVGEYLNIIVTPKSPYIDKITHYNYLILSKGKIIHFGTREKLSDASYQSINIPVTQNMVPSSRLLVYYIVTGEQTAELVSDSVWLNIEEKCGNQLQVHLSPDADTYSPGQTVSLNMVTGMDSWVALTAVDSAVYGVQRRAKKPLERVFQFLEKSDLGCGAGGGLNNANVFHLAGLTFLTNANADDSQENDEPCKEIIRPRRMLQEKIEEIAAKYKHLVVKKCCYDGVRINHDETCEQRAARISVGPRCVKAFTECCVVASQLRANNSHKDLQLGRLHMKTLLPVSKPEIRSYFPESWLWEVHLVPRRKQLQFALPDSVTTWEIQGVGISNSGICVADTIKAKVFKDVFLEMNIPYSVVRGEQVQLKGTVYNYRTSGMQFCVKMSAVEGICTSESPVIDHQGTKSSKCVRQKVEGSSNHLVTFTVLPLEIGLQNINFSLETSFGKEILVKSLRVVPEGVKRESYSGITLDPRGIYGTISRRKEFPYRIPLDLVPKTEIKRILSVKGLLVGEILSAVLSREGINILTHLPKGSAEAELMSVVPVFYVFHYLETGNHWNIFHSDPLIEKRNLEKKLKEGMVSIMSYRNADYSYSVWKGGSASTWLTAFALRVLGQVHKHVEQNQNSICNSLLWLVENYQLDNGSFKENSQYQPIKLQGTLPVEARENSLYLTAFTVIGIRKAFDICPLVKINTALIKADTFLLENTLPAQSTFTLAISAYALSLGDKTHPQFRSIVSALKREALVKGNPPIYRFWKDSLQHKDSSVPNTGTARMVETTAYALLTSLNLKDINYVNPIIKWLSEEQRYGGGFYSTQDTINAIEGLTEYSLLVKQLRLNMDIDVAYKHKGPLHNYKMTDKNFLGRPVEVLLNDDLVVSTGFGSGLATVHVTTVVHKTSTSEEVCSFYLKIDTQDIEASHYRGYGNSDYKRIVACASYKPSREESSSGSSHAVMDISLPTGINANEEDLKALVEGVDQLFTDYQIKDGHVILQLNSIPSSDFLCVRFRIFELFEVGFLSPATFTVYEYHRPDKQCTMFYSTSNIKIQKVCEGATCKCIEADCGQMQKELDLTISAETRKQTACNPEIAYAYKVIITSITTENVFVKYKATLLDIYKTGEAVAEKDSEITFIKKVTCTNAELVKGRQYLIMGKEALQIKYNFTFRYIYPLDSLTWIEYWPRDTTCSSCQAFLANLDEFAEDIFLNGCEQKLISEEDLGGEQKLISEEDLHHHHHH
# T2: monkey C5-mmh (monkey, UniProt P01031 19-1676 (human entry), limits assumed)
# T2 construct: Expressed with a C-terminal myc-myc-hexahistidine tag
# T2 chain: T1 chain
# B1: H4H12161P (antibody, human IgG4, V domains shown)
# VH: EVQLVESGGDLVQPGGSLRLSCAASGFTFSDHYMDWVRQAPGKGLDWIGRIRNKANAYNTEYAASVRGRFTISRDDSQNLLYLQMNSLKTDDTAVYYCVRVWNYAYFAMDVWGQGTTVTVSS
# VL: DIQMTQSPSSLSASVGDRVTITCRSSQNIGIFLNWYQQKPGEAPNLLISAASSLHSGVPSRFSGSGSGTDFTLTIGSLQPEDFATYYCQQTYNTIFTFGPGTKVDIK
# notes: Human IgG4 Fc with S108P hinge mutation (H4H)
# B2: H4H12166P7 (antibody, human IgG4, V domains shown)
# VH: QVQLQESGPGLVKPSETLSLTCTVSGDSVSSSYWTWIRQPPGKGLEWIGYIYYSGSSNYNPSLKSRATISVDTSKNQFSLKLSSVTAADTAVYYCAREHNVDTTMIFDYWGQGTLVTVSS
# VL: AIQMTQSPSSLSASVGDRVTITCRASQGIRNDLGWYQQKPGKAPKLLIYAASSLQSGVPSRFAGRGSGTDFTLTISSLQPEDFATYYCLQDFNYPWHFGQGTKVEIK
# notes: human IgG4 Fc with S108P hinge mutation
# B3: H4H12166P8 (antibody, human IgG4, V domains shown)
# VH: B2 VH with H99G, T103H
# VL: B2 VL with L89H, H97T
# notes: as for B2
# B4: H4H12166P9 (antibody, human IgG4, V domains shown)
# VH: B2 VH with H99G, T103H
# VL: B2 VL
# notes: as for B2
# B5: H4H12166P10 (antibody, human IgG4, V domains shown)
# VH: B2 VH with H99G, F107H
# VL: B2 VL
# notes: as for B2
# B6: H4H12161P (antibody, human IgG4, V domains shown)
# VH: B1 VH
# VL: B1 VL
# B7: H4H12171P (antibody, human IgG4, V domains shown)
# VH: EVQLVESGGGVVRPGGSLRLSCAASGFTFDEYGMTWVRQVPGKGLEWVSGITWNGGFTDYTDSVKGRFTSSRDNAKNSLYLQMNSLRAEDTALYYCARDGYSSSWGAYDIWGQGTMVTVSS
# VL: DIQMTQSPSSLSASVGDRVTITCRASQSISTYLNWYQQKPGKAPKLLIYAASSLQSGVPLRFSGSGSGTDFTLTISSLQPEDFASYFCQQSYSTPYTFGQGTKLEIK
# B8: H4H11683N (antibody, human IgG4, V domains shown)
# VH: QVQLVESGGGVVQPGRSLRLSCVASGFTFSSYGIHWVRQAPGKGLEWVAVIWDDGNNINYSDSVKGRFIISRDNSRKTVYLQMNSLRGEDTAVYYCARDAPIAPVPDYWGQGTLVTVSS
# VL: DIQMTQSPSTLSASVGDRVTITCRASQSISSWLAWYQQKPGKAPKLLIYKASSLDTGVPSRFSGSGSGTEFTLTISSLQPDDFATYYCQQYNTYSYTFGLGTKLEIK
# notes: also called H2M11683N
# Biological target: T1, monkey C5-mmh
# Experiment: SPR, mAb captured via anti-hFc, 37C
# Method: (§1) Equilibrium dissociation constants (KD values) for C5 binding to purified anti-C5 antibodies were determined using a real-time surface plasmon resonance biosensor assay on a Biacore T200 instrument. The Biacore sensor surface was derivatized by amine coupling with a monoclonal mouse anti-human Fc antibody (GE Healthcare, # BR-1008-39) to capture anti-C5 antibodies expressed with human Fc constant regions. Biacore binding studies were conducted in HBST running buffer (0.01M HEPES pH 7.4, 0.15M NaCl, 3 mM EDTA, 0.05% v/v Surfactant P20).
# (§2) Human C5 was obtained from a commercial source (EMD). Other C5 reagents were expressed with a C-terminal myc-myc-hexahistidine tag (subsequently referred to as C5-mmh). […] Association of all the C5 reagents to each of the captured monoclonal antibodies was monitored for 3 minutes and their dissociation in HBST running buffer was monitored for 8 minutes. All the binding kinetics experiments were performed at either 25° C. or 37° C. Kinetic association (kₐ) and dissociation (kd) rate constants were determined by fitting the real-time sensorgrams to a 1:1 binding model using Scrubber 2.0c curve fitting software. Binding dissociation equilibrium constants (KD) and dissociative half-lives (t %) were calculated from the kinetic rate constants as: KD (M)=kd/kₐ and t_{1/2} (min)=In2/(60×kd)
100 nM monkey C5-mmh Bound (RU),Kd [nM],koff [s⁻¹],kon [M⁻¹ s⁻¹],t1/2 [min],Binder
53,5.56,0.000745,134000,16,B1

# Biological target: T3, human C5 R885C-mmh (human, UniProt P01031 19-1676)
# T3 construct: also called human C5 variant R885C
# Experiment: SPR, mAb captured via anti-hFc, 37C
# Method: as §1, §2
100 nM Human C5 R885C-mmh Bound (RU),Kd [nM],koff [s⁻¹],kon [M⁻¹ s⁻¹],t1/2 [min],Binder
49,8.17,0.000901,110000,13,B1

# Biological target: T4, human C5 R885H-mmh (human, UniProt P01031 19-1676)
# T4 construct: also called human C5 variant R885H
# Experiment: SPR, mAb captured via anti-hFc, 37C
# Method: as §1, §2
100 nM Human C5 R885H-mmh Bound (RU),Kd [nM],koff [s⁻¹],kon [M⁻¹ s⁻¹],t1/2 [min],Binder
54,7.84,0.000925,118000,12,B1

# Biological target: T5, Human C5 (human, UniProt P01031 19-1676)
# T5 construct: The natural protein has a beta and an alpha chain; also called complement factor 5; complement component 5
# Experiment: SPR, mAb captured by anti-hFc, 37C
# Method: as §1, §2
100 nM Human C5 Bound (RU),Kd [nM],koff [s⁻¹],kon [M⁻¹ s⁻¹],t½ [min],Binder
105,7.39,0.00258,349000,4,B2
98,3.1,0.00209,675000,6,B3
122,1.7,0.000639,375000,18,B4
82,13.8,0.00314,227000,4,B5
66,0.99,0.000115,116000,101,B6
58,6.27,0.000762,122000,15,B7
492,0.532,0.000241,454000,48,B8

# Biological target: T3, human C5 R885C-mmh
# Experiment: SPR, mAb captured via anti-hFc, 25C
# Method: as §1, §2
100 nM Human C5 R885C-mmh Bound (RU),Kd [nM],koff [s⁻¹],kon [M⁻¹ s⁻¹],t1/2 [min],Binder
147,0.672,8.71e-05,130000,133,B1

# Biological target: T4, human C5 R885H-mmh
# Experiment: SPR, mAb captured via anti-hFc, 25C
# Method: as §1, §2
100 nM Human C5 R885H-mmh Bound (RU),Kd [nM],koff [s⁻¹],kon [M⁻¹ s⁻¹],t1/2 [min],Binder
199,0.996,8.32e-05,83600,139,B1

# Biological target: T2, monkey C5-mmh
# Experiment: SPR, mAb captured by anti-hFc, 25C
# Method: as §1, §2
100 nM monkey C5-mmh Bound (RU),Kd [nM],koff [s⁻¹],kon [M⁻¹ s⁻¹],t1/2 [min],Binder
36,46.5,0.00633,136000,2,B2
47,21.6,0.00499,231000,2,B3
55,18.7,0.00318,170000,4,B4
15,64.4,0.00616,95600,2,B5
45,0.392,2.48e-05,63300,465,B6
17,4.92,0.000226,46000,51,B7
403,0.64,0.000247,386000,47,B8

# Biological target: T5, Human C5
# Experiment: SPR, mAb captured by anti-hFc, 25C
# Method: as §1, §2
100 nM Human C5 Bound (RU),Kd [nM],koff [s⁻¹],kon [M⁻¹ s⁻¹],t½ [min],Binder
92,3.67,0.00101,274000,11,B2
91,1.42,0.000686,484000,17,B3
100,0.794,0.000264,332000,44,B4
69,8.38,0.00132,157000,9,B5
64,0.17,4.37e-05,258000,264,B6
64,0.549,8.16e-05,149000,142,B7
439,0.123,5.14e-05,417000,225,B8
